Data taken from IntAct's records for PubMed 19918049.

B1: Serine/threonine-protein kinase haspin (Homo sapiens), Q8TF76-1 (parent)
chain: MAASLPGPGSRLFRTYGAADGRRQRRPGREAAQWFPPQDRRRFFNSSGSSDASIGDPSQSDDPDDPDDPDFPGSPVRRRRRRPGGRVPKDRPSLTVTPKRWKLRARPSLTVTPRRLGLRARPPQKCSTPCGPLRLPPFPSRDSGRLSPDLSVCGQPRDGDELGISASLFSSLASPCPGSPTPRDSVISIGTSACLVAASAVPSGLHLPEVSLDRASLPCSQEEATGGAKDTRMVHQTRASLRSVLFGLMNSGTPEDSEFRADGKNMRESCCKRKLVVGNGPEGPGLSSTGKRRATGQDSCQERGLQEAVRREHQEASVPKGRIVPRGIDRLERTRSSRKSKHQEATETSLLHSHRFKKGQKLGKDSFPTQDLTPLQNVCFWTKTRASFSFHKKKIVTDVSEVCSIYTTATSLSGSLLSECSNRPVMNRTSGAPSSWHSSSMYLLSPLNTLSISNKKASDAEKVYGECSQKGPVPFSHCLPTEKLQRCEKIGEGVFGEVFQTIADHTPVAIKIIAIEGPDLVNGSHQKTFEEILPEIIISKELSLLSGEVCNRTEGFIGLNSVHCVQGSYPPLLLKAWDHYNSTKGSANDRPDFFKDDQLFIVLEFEFGGIDLEQMRTKLSSLATAKSILHQLTASLAVAEASLRFEHRDLHWGNVLLKKTSLKKLHYTLNGKSSTIPSCGLQVSIIDYTLSRLERDGIVVFCDVSMDEDLFTGDGDYQFDIYRLMKKENNNRWGEYHPYSNVLWLHYLTDKMLKQMTFKTKCNTPAMKQIKRKIQEFHRTMLNFSSATDLLCQHSLFK

Variants of: B1
Conditions: with h32_mouse H3c13, P84228

| effect of a mutation on the interaction | Variant |
| --- | --- |
| decreasing interaction | H651A |
| decreasing interaction | D709N |
| decreasing interaction | D707L |
| decreasing interaction | E492A |
| decreasing interaction | G713F |
